These are literature values, as cited in paper PMC4652169.

This series has as its target IgG Fc Fc (Homo sapiens) [IgG part: P01857]. The series can be described thus: given as Ka.

The term Kd denotes the constant that tells how readily two partners part at equilibrium. Turning to “Protein A Z domain (ZWT) Z domain (from UniProt P02976)”, the Kd was 16.9 nM.
